# US20180155451A1 (published 2018)
# T1: FcγRIIa R (human FcγRIIa, allotype R, Arg at position 131), extracellular domain with C-terminal His tag (human, UniProt P12318 34-217)
# T1 construct: extracellular domain; expressed in FreeStyle293 cells; analyte in Biacore; also called 2aR; FcgRIIa R
# T1 sequence (looked up): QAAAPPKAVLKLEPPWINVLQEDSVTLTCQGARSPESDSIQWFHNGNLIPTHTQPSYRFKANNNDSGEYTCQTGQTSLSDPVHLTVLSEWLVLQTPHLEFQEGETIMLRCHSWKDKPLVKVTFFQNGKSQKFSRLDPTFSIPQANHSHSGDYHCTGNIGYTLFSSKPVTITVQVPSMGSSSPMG
# T2: FcγRIIb (human, UniProt P31994 43-217)
# T2 construct: extracellular domain; also called FcgRIIb; 2b; not shown: His tag at the C terminus
# T2 sequence (looked up): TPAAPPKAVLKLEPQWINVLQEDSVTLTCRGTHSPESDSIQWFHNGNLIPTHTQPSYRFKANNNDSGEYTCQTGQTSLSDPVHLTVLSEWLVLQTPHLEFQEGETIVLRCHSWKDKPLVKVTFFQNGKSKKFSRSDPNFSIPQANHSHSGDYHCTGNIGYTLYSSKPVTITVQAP
# B1: GpH7-A5/GpH7-B3 variant S337_02A/GpL16-k0 (antibody, human IgG1, kappa)
# heavy 1: not shown
# heavy 2: not shown
# light: DIVMTQSPLSLPVTPGEPASISCQASESLVHSNRNTYLHWYLQKPGQSPQLLIYKVSNRFSGVPDRFSGSGSGTDFTLKISRVEAEDVGVYYCSQNTHVPPTFGQGTKVEIERTVAAPSVFIFPPSDEQLKSGTASVVCLLNNFYPREAKVQWKVDNALQSGNSQESVTEQDSKDSTYSLSSTLTLSKADYEKHKVYACEVTHQGLSSPVTKSFNRGEC
# notes: heterodimerized antibody, mutation in one H chain only; also called He Ab
# B2: GpH7-A5/GpH7-B3 variant P238_10E/GpL16-k0 (antibody, human IgG1, kappa)
# heavy 1: not shown
# heavy 2: not shown
# light: B1 light
# notes: as for B1
# B3: GpH7-A5/GpH7-B3 variant P238_15Y/GpL16-k0 (antibody, human IgG1, kappa)
# heavy 1: not shown
# heavy 2: not shown
# light: B1 light
# notes: as for B1
# B4: GpH7-A5/GpH7-B3 variant P238_16H/GpL16-k0 (antibody, human IgG1, kappa)
# heavy 1: not shown
# heavy 2: not shown
# light: B1 light
# notes: as for B1
# B5: GpH7-A5/GpH7-B3 variant P238_19Q/GpL16-k0 (antibody, human IgG1, kappa)
# heavy 1: not shown
# heavy 2: not shown
# light: B1 light
# notes: as for B1
# B6: GpH7-A5/GpH7-B3 variant P238_20W/GpL16-k0 (antibody, human IgG1, kappa)
# heavy 1: not shown
# heavy 2: not shown
# light: B1 light
# notes: as for B1
# B7: GpH7-A5/GpH7-B3 variant P271_09D/GpL16-k0 (antibody, human IgG1, kappa)
# heavy 1: not shown
# heavy 2: not shown
# light: B1 light
# notes: as for B1
# B8: GpH7-A5/GpH7-B3 variant P271_10E/GpL16-k0 (antibody, human IgG1, kappa)
# heavy 1: not shown
# heavy 2: not shown
# light: B1 light
# notes: as for B1
# B9: GpH7-A5/GpH7-B3 variant P331_03V/GpL16-k0 (antibody, human IgG1, kappa)
# heavy 1: not shown
# heavy 2: not shown
# light: B1 light
# notes: as for B1
# B10: GpH7-A5/GpH7-B3 variant S267_06M/GpL16-k0 (antibody, human IgG1, kappa)
# heavy 1: not shown
# heavy 2: not shown
# light: B1 light
# notes: as for B1
# B11: GpH7-A5/GpH7-B3 variant S267_09D/GpL16-k0 (antibody, human IgG1, kappa)
# heavy 1: not shown
# heavy 2: not shown
# light: B1 light
# notes: as for B1
# B12: GpH7-A5/GpH7-B3 variant S267_19Q/GpL16-k0 (antibody, human IgG1, kappa)
# heavy 1: not shown
# heavy 2: not shown
# light: B1 light
# notes: as for B1
# B13: GpH7-A5/GpH7-B3 variant S298_06M/GpL16-k0 (antibody, human IgG1, kappa)
# heavy 1: not shown
# heavy 2: not shown
# light: B1 light
# notes: as for B1
# B14: GpH7-A5/GpH7-B3 variant S298_08L/GpL16-k0 (antibody, human IgG1, kappa)
# heavy 1: not shown
# heavy 2: not shown
# light: B1 light
# notes: as for B1
# B15: GpH7-A5/GpH7-B3 variant S324_04F/GpL16-k0 (antibody, human IgG1, kappa)
# heavy 1: not shown
# heavy 2: not shown
# light: B1 light
# notes: as for B1
# B16: GpH7-A5/GpH7-B3 variant S324_06M/GpL16-k0 (antibody, human IgG1, kappa)
# heavy 1: not shown
# heavy 2: not shown
# light: B1 light
# notes: as for B1
# B17: GpH7-A5/GpH7-B3 variant K326_02A/GpL16-k0 (antibody, human IgG1, kappa)
# heavy 1: not shown
# heavy 2: not shown
# light: B1 light
# notes: heterodimerized IgG1; alteration in the GpH7-B3 H chain only; also called He Ab
# B18: GpH7-A5/GpH7-B3 variant H268_10E/GpL16-k0 (antibody, human IgG1, kappa)
# heavy 1: not shown
# heavy 2: not shown
# light: B1 light
# notes: as for B17
# Molecular target: T1, FcγRIIa R (human FcγRIIa, allotype R, …)
# Assay: SPR (Biacore), relative binding vs GpH7-A5/GpH7-B3/GpL16-k0
row,He/Con_2aR,Binder
1,"105 relative, control = 100",B1
2,"151 relative, control = 100",B2
3,"156 relative, control = 100",B3
4,"122 relative, control = 100",B4
5,"104 relative, control = 100",B5
6,"117 relative, control = 100",B6
7,"110 relative, control = 100",B7
8,"103 relative, control = 100",B8
9,"114 relative, control = 100",B9
10,"122 relative, control = 100",B10
11,"173 relative, control = 100",B11
12,"135 relative, control = 100",B12
13,"108 relative, control = 100",B13
14,"105 relative, control = 100",B14
15,"104 relative, control = 100",B15
16,"123 relative, control = 100",B16

# Molecular target: T3, FcγRIa (human, UniProt P12314 16-292)
# T3 construct: extracellular domain; also called FcgRI; 1a; not shown: His tag at the C terminus
# Assay: SPR (Biacore); He/Con_1a (FcγRIa) divided by He/Con_2b (FcγRIIb)
# T3 sequence (P12314 16-292): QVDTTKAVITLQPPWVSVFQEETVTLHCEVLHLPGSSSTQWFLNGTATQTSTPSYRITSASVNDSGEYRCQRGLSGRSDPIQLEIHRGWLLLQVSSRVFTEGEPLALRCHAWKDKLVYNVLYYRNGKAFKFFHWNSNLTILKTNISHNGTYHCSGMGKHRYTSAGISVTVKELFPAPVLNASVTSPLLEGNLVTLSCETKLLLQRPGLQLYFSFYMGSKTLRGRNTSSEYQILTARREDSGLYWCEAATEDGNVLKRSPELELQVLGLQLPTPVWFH
row,Ia/IIb He_1a/2b [ratio],Binder
1,0.73,B17
2,0.48,B18

# Molecular target: T3, FcγRIa
# Assay: SPR (Biacore), antibody captured, FcγR as analyte; binding as % of GpH7-A5/GpH7-B3/GpL16-k0
row,He/Con_1a,Binder
1,102 % of control,B17
2,111 % of control,B18

# Molecular target: T2, FcγRIIb
# Assay: as above
row,He/Con_2b,Binder
1,139 % of control,B17
2,230 % of control,B18
